These results are taken from patent US20170101454A1 (Novo Nordisk, published 2017).

Starred links: 1 amine or outer side, 2 acyl side, 3 side chain; linkers in the order of their positions; H or OH if unused. Non-standard residues stand in square brackets, D forms with d. Groups on a side chain read outwards from the residue. No end group written: not given here. *: point of attachment. C18 diacid = O=C(O)CCCCCCCCCCCCCCCCC(=O)*; γGlu = O=C(O)[C@H](CCC(=O)[*:2])N[*:1]; Ac4c = NC1(C(=O)O)CCC1; AEEA = NCCOCCOCC(=O)O; Aib = CC(C)(N)C(=O)O

Test [1] has as its target T1, human GLP-1 receptor (human, UniProt P43220 24-463).
T1 construct: whole, on cells; reporter assay used whole cells
In words: displacement of [125I]-GLP-1-(7-36)NH2 from BHK membranes with human GLP-1R, SPA, no serum albumin. In general terms: In a radioligand displacement assay an active substance lowers the binding of a labelled ligand.

Test [2] deals with T2, human glucagon receptor (human, UniProt P47871 26-477). In words: cell-based or functional assay.
T2 sequence (P47871 26-477): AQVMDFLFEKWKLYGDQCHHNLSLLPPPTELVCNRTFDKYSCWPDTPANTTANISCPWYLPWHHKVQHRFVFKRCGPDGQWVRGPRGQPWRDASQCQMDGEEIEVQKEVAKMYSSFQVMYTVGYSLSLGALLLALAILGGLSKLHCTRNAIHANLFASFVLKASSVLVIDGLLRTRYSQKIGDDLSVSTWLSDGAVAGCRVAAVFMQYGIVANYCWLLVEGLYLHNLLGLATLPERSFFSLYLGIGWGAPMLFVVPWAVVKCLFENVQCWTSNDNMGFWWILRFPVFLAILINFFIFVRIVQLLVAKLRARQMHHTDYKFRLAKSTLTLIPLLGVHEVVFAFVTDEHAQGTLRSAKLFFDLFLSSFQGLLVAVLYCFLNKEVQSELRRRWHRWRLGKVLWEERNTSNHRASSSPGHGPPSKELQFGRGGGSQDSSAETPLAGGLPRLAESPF
Test [3] deals with T1, human GLP-1 receptor. In words: cell-based or functional assay.
The target of test [4] is T2, human glucagon receptor. In words: displacement of [125I]-glucagon from BHK membranes with human glucagon receptor, SPA, no serum albumin.

B1: N^ε28-[(4S)-4-carboxy-4-[[(4S)-4-carboxy-4-[[2-[2-[2-[[2-[2-[2-[[(4S)-4-carboxy-4-(17-carboxyheptadecanoylamino)butanoyl]amino]ethoxy]ethoxy]acetyl]amino]ethoxy … (peptide)
peptide: H[Aib]QGTFTSDYSKYLESRRAQDFVAWLIK([γGlu-γGlu-AEEA-AEEA-γGlu-C18 diacid])T-NH2
modifications: N-terminus assumed
SMILES: CC[C@H](C)[C@H](NC(=O)[C@H](CC(C)C)NC(=O)[C@H](Cc1c[nH]c2ccccc12)NC(=O)[C@H](C)NC(=O)[C@@H](NC(=O)[C@H](Cc1ccccc1)NC(=O)[C@H](CC(=O)O)NC(=O)[C@H](CCC(N)=O)NC(=O)[C@H](C)NC(=O)[C@H](CCCNC(=N)N)NC(=O)[C@H](CCCNC(=N)N)NC(=O)[C@H](CO)NC(=O)[C@H](CCC(=O)O)NC(=O)[C@H](CC(C)C)NC(=O)[C@H](Cc1ccc(O)cc1)NC(=O)[C@H](CCCCN)NC(=O)[C@H](CO)NC(=O)[C@H](Cc1ccc(O)cc1)NC(=O)[C@H](CC(=O)O)NC(=O)[C@H](CO)NC(=O)[C@@H](NC(=O)[C@H](Cc1ccccc1)NC(=O)[C@@H](NC(=O)CNC(=O)[C@H](CCC(N)=O)NC(=O)C(C)(C)NC(=O)[C@@H](N)Cc1c[nH]cn1)[C@@H](C)O)[C@@H](C)O)C(C)C)C(=O)N[C@@H](CCCCNC(=O)CC[C@H](NC(=O)CC[C@H](NC(=O)COCCOCCNC(=O)COCCOCCNC(=O)CC[C@H](NC(=O)CCCCCCCCCCCCCCCCC(=O)O)C(=O)O)C(=O)O)C(=O)O)C(=O)N[C@H](C(N)=O)[C@@H](C)O
notes: also called Chem. 34; Chem 34
B1: the IC50 (as a rule, the concentration that gives 50% inhibition) with human GLP-1 receptor [1] was determined as 2.2 nM; in the test with human glucagon receptor [4] it was 7 nM. Further, the “GlucagonR EC50 (pM), [Assay (I)(b)], CRE luciferase reporter, BHK cells” value (“GlucagonR EC50 (pM), [Assay (I)(b)]” below) in the test with human glucagon receptor [2] stood at 66 pM. Moreover, the “GLP-1R EC50 (pM) [Assay (I)(a)], CRE luciferase reporter, BHK cells” value (shortened to “GLP-1R EC50 (pM) [Assay (I)(a)]”) with human GLP-1 receptor [3] came out at 3 pM.

As to H[Ac4c]QGTFTSDLSKYLESRRAREFVQWLIK([γGlu-γGlu-AEEA-AEEA-γGlu-γGlu-C18 diacid])T-NH2 (also called Chem. 13; Chem 13), the IC50 with human GLP-1 receptor [1] was determined as 0.1 nM; in the test with human glucagon receptor [4], 1.8 nM. The “GlucagonR EC50 (pM), [Assay (I)(b)]” value in the test with human glucagon receptor [2] turned out to be 23 pM. Besides, the “GLP-1R EC50 (pM) [Assay (I)(a)]” value in the test with human GLP-1 receptor [3] worked out at 4 pM.

B2: N^ε29-[(4S)-4-carboxy-4-[[(4S)-4-carboxy-4-[[2-[2-[2-[[2-[2-[2-[[(4S)-4-carboxy-4-(17-carboxyheptadecanoylamino)butanoyl]amino]ethoxy]ethoxy]acetyl]amino]ethoxy … (peptide)
peptide: H[Aib]QGTFTSDLSKYLDARRARDFVQWLINK([γGlu-γGlu-AEEA-AEEA-γGlu-C18 diacid])-NH2
modifications: N-terminus assumed
SMILES: CC[C@H](C)[C@H](NC(=O)[C@H](CC(C)C)NC(=O)[C@H](Cc1c[nH]c2ccccc12)NC(=O)[C@H](CCC(N)=O)NC(=O)[C@@H](NC(=O)[C@H](Cc1ccccc1)NC(=O)[C@H](CC(=O)O)NC(=O)[C@H](CCCNC(=N)N)NC(=O)[C@H](C)NC(=O)[C@H](CCCNC(=N)N)NC(=O)[C@H](CCCNC(=N)N)NC(=O)[C@H](C)NC(=O)[C@H](CC(=O)O)NC(=O)[C@H](CC(C)C)NC(=O)[C@H](Cc1ccc(O)cc1)NC(=O)[C@H](CCCCN)NC(=O)[C@H](CO)NC(=O)[C@H](CC(C)C)NC(=O)[C@H](CC(=O)O)NC(=O)[C@H](CO)NC(=O)[C@@H](NC(=O)[C@H](Cc1ccccc1)NC(=O)[C@@H](NC(=O)CNC(=O)[C@H](CCC(N)=O)NC(=O)C(C)(C)NC(=O)[C@@H](N)Cc1c[nH]cn1)[C@@H](C)O)[C@@H](C)O)C(C)C)C(=O)N[C@@H](CC(N)=O)C(=O)N[C@@H](CCCCNC(=O)CC[C@H](NC(=O)CC[C@H](NC(=O)COCCOCCNC(=O)COCCOCCNC(=O)CC[C@H](NC(=O)CCCCCCCCCCCCCCCCC(=O)O)C(=O)O)C(=O)O)C(=O)O)C(N)=O
notes: also called Chem. 20; Chem 20
In the case of B2, the IC50 with human GLP-1 receptor [1] came to 0.1 nM; in the test with human glucagon receptor [4], 13.6 nM. Also, the “GlucagonR EC50 (pM), [Assay (I)(b)]” value in the test with human glucagon receptor [2] stood at 70 pM. The “GLP-1R EC50 (pM) [Assay (I)(a)]” value with human GLP-1 receptor [3] came out at 4 pM.

B3: N^ε28-[(4S)-4-carboxy-4-[[(4S)-4-carboxy-4-[[2-[2-[2-[[2-[2-[2-[[(4S)-4-carboxy-4-[[(4S)-4-carboxy-4-(17-carboxyheptadecanoylamino)butanoyl]amino]butanoyl]amino … (peptide)
peptide: H[Ac4c]QGTFTSDLSRYLESRRAREFVQWLIK([γGlu-γGlu-AEEA-AEEA-γGlu-γGlu-C18 diacid])T-NH2
modifications: N-terminus assumed
SMILES: CC[C@H](C)[C@H](NC(=O)[C@H](CC(C)C)NC(=O)[C@H](Cc1c[nH]c2ccccc12)NC(=O)[C@H](CCC(N)=O)NC(=O)[C@@H](NC(=O)[C@H](Cc1ccccc1)NC(=O)[C@H](CCC(=O)O)NC(=O)[C@H](CCCNC(=N)N)NC(=O)[C@H](C)NC(=O)[C@H](CCCNC(=N)N)NC(=O)[C@H](CCCNC(=N)N)NC(=O)[C@H](CO)NC(=O)[C@H](CCC(=O)O)NC(=O)[C@H](CC(C)C)NC(=O)[C@H](Cc1ccc(O)cc1)NC(=O)[C@H](CCCNC(=N)N)NC(=O)[C@H](CO)NC(=O)[C@H](CC(C)C)NC(=O)[C@H](CC(=O)O)NC(=O)[C@H](CO)NC(=O)[C@@H](NC(=O)[C@H](Cc1ccccc1)NC(=O)[C@@H](NC(=O)CNC(=O)[C@H](CCC(N)=O)NC(=O)C1(NC(=O)[C@@H](N)Cc2c[nH]cn2)CCC1)[C@@H](C)O)[C@@H](C)O)C(C)C)C(=O)N[C@@H](CCCCNC(=O)CC[C@H](NC(=O)CC[C@H](NC(=O)COCCOCCNC(=O)COCCOCCNC(=O)CC[C@H](NC(=O)CC[C@H](NC(=O)CCCCCCCCCCCCCCCCC(=O)O)C(=O)O)C(=O)O)C(=O)O)C(=O)O)C(=O)N[C@H](C(N)=O)[C@@H](C)O
notes: also called Chem. 17; Chem 17
As to B3, the IC50 was found to be 0.1 nM in the test with human GLP-1 receptor [1] and 4.3 nM in the test with human glucagon receptor [4]. Moreover, in the test with human glucagon receptor [2], the “GlucagonR EC50 (pM), [Assay (I)(b)]” value was found to be 45 pM. Further, the “GLP-1R EC50 (pM) [Assay (I)(a)]” value in the test with human GLP-1 receptor [3] turned out to be 4 pM.

H[Aib]QGTFTSDLSRYLDARRARDFVQWLIK([γGlu-γGlu-γGlu-C18 diacid])T-NH2 (also called Chem. 14; Chem 14): the half-inhibitory concentration (IC50) came to 0.1 nM with human GLP-1 receptor [1] and 6.4 nM with human glucagon receptor [4]. Further, in the test with human glucagon receptor [2], the “GlucagonR EC50 (pM), [Assay (I)(b)]” value was found to be 9 pM. For the same molecule, in the test with human GLP-1 receptor [3], the “GLP-1R EC50 (pM) [Assay (I)(a)]” value is 2 pM.

B4: N^ε28-[(4S)-4-carboxy-4-[[(4S)-4-carboxy-4-[[2-[2-[2-[[2-[2-[2-[[(4S)-4-carboxy-4-[[(4S)-4-carboxy-4-(17-carboxyheptadecanoylamino)butanoyl]amino]butanoyl]amino … (peptide)
peptide: H[Ac4c]QGTFTSDISKYLESRRAREFVQWLIK([γGlu-γGlu-AEEA-AEEA-γGlu-γGlu-C18 diacid])T-NH2
modifications: N-terminus assumed
SMILES: CC[C@H](C)[C@H](NC(=O)[C@H](CC(=O)O)NC(=O)[C@H](CO)NC(=O)[C@@H](NC(=O)[C@H](Cc1ccccc1)NC(=O)[C@@H](NC(=O)CNC(=O)[C@H](CCC(N)=O)NC(=O)C1(NC(=O)[C@@H](N)Cc2c[nH]cn2)CCC1)[C@@H](C)O)[C@@H](C)O)C(=O)N[C@@H](CO)C(=O)N[C@@H](CCCCN)C(=O)N[C@@H](Cc1ccc(O)cc1)C(=O)N[C@@H](CC(C)C)C(=O)N[C@@H](CCC(=O)O)C(=O)N[C@@H](CO)C(=O)N[C@@H](CCCNC(=N)N)C(=O)N[C@@H](CCCNC(=N)N)C(=O)N[C@@H](C)C(=O)N[C@@H](CCCNC(=N)N)C(=O)N[C@@H](CCC(=O)O)C(=O)N[C@@H](Cc1ccccc1)C(=O)N[C@H](C(=O)N[C@@H](CCC(N)=O)C(=O)N[C@@H](Cc1c[nH]c2ccccc12)C(=O)N[C@@H](CC(C)C)C(=O)N[C@H](C(=O)N[C@@H](CCCCNC(=O)CC[C@H](NC(=O)CC[C@H](NC(=O)COCCOCCNC(=O)COCCOCCNC(=O)CC[C@H](NC(=O)CC[C@H](NC(=O)CCCCCCCCCCCCCCCCC(=O)O)C(=O)O)C(=O)O)C(=O)O)C(=O)O)C(=O)N[C@H](C(N)=O)[C@@H](C)O)[C@@H](C)CC)C(C)C
notes: also called Chem. 26; Chem 26
As to B4, the IC50 with human GLP-1 receptor [1] amounted to 0.4 nM; with human glucagon receptor [4], 10.1 nM. Further, the “GlucagonR EC50 (pM), [Assay (I)(b)]” value with human glucagon receptor [2] came to 42 pM. Also, the “GLP-1R EC50 (pM) [Assay (I)(a)]” value with human GLP-1 receptor [3] was found to be 2 pM.

B5: N^ε28-[(4S)-4-carboxy-4-[[(4S)-4-carboxy-4-[[2-[2-[2-[[2-[2-[2-[[(4S)-4-carboxy-4-[[(4S)-4-carboxy-4-(17-carboxyheptadecanoylamino)butanoyl]amino]butanoyl]amino … (peptide)
peptide: H[Aib]QGTFTSDLSKYLESRRAREFVQWLIK([γGlu-γGlu-AEEA-AEEA-γGlu-γGlu-C18 diacid])T-NH2
modifications: N-terminus assumed
SMILES: CC[C@H](C)[C@H](NC(=O)[C@H](CC(C)C)NC(=O)[C@H](Cc1c[nH]c2ccccc12)NC(=O)[C@H](CCC(N)=O)NC(=O)[C@@H](NC(=O)[C@H](Cc1ccccc1)NC(=O)[C@H](CCC(=O)O)NC(=O)[C@H](CCCNC(=N)N)NC(=O)[C@H](C)NC(=O)[C@H](CCCNC(=N)N)NC(=O)[C@H](CCCNC(=N)N)NC(=O)[C@H](CO)NC(=O)[C@H](CCC(=O)O)NC(=O)[C@H](CC(C)C)NC(=O)[C@H](Cc1ccc(O)cc1)NC(=O)[C@H](CCCCN)NC(=O)[C@H](CO)NC(=O)[C@H](CC(C)C)NC(=O)[C@H](CC(=O)O)NC(=O)[C@H](CO)NC(=O)[C@@H](NC(=O)[C@H](Cc1ccccc1)NC(=O)[C@@H](NC(=O)CNC(=O)[C@H](CCC(N)=O)NC(=O)C(C)(C)NC(=O)[C@@H](N)Cc1c[nH]cn1)[C@@H](C)O)[C@@H](C)O)C(C)C)C(=O)N[C@@H](CCCCNC(=O)CC[C@H](NC(=O)CC[C@H](NC(=O)COCCOCCNC(=O)COCCOCCNC(=O)CC[C@H](NC(=O)CC[C@H](NC(=O)CCCCCCCCCCCCCCCCC(=O)O)C(=O)O)C(=O)O)C(=O)O)C(=O)O)C(=O)N[C@H](C(N)=O)[C@@H](C)O
notes: also called Chem. 25; Chem 25
For the molecule B5, the results for the IC50 in the test with human GLP-1 receptor [1] and in the test with human glucagon receptor [4] were 0.1 nM and 11.2 nM, respectively. In addition, the “GlucagonR EC50 (pM), [Assay (I)(b)]” value with human glucagon receptor [2] was 52 pM. In addition, the “GLP-1R EC50 (pM) [Assay (I)(a)]” value with human GLP-1 receptor [3] stood at 2 pM.
